Experimental data taken from the supplement of paper PMC10567573.
± gives the standard deviation.

Assay: protein stability index of a GFP-peptide fusion (GPS, HEK-293T) (PSI 1-6); higher = more stable
Conditions: c terminus: a fixed tail appended
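Note: 24-mer peptide tiles fused after GFP, lentivirally expressed, FACS-sorted into six equal bins by GFP/DsRed ratio, decoded by Illumina sequencing, PSI is the read-weighted mean bin number.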

Row | Sequence | protein stability index (treatment: DMSO) | protein stability index (treatment: MLN4924 1 uM, 8 h)
1 | KAFADPEVLRRLTSSVSCALDEAA [ANKRD17] | 3.08 ± 0.34 | 3.18 ± 0.21
2 | ALSKHFIPYNAKFLGSTEVEQPKG [GULP1] | 3.19 ± 0.23 | 3.55 ± 0.2
3 | VTADDFVQTSVIGSNGYILNKPAL [EHMT1] | 3.11 ± 0.26 | 3.13 ± 0.25
4 | SLGIELHCNVSNILHMNGSQSSTY [ZNF396] | 2.18 ± 0.38 | 2.16 ± 0.27
5 | QPQQGYIPPMAQPGLPPVPGAPGM [ZNF207] | 4.36 ± 0.068 | 4.47 ± 0.28
6 | NIDIQNGFLLRYAVIKSNHSYCRM [ASB7] | 2.57 ± 0.38 | 2.54 ± 0.36
7 | QELQARLQTVTREKEELLQLSIER [CCDC89] | 4.38 ± 0.35 | 4.32 ± 0.1
8 | DCMSRELVSLTSRNPDQRKESLCI [FBXO34] | 3.93 ± 0.57 | 4.11 ± 0.32
9 | KECKDRGFEYDGKINAWDLYYYMT [NLN] | 2.52 ± 0.3 | 2.16 ± 0.29
10 | RKVTDSISKSLELCNEISLSEIKD [DLC1] | 4.136 ± 0.019 | 4.26 ± 0.11
11 | AFAPDFKELDENVEYEERESEFDI [RBBP5] | 5.38 ± 0.15 | 5.16 ± 0.41
12 | DVALALAALDGGRSLEELTRLAFE [LPCAT4] | 2.06 ± 0.68 | 2.12 ± 0.19
13 | AFRWGAHLVQHQRIHSGEKPYECN [ZNF232] | 2.79 ± 0.25 | 2.87 ± 0.19
14 | KMGSYYINRTFFFDVHPPLGKMLI [POMT2] | 2.95 ± 0.75 | 3 ± 0.46
15 | LSYNLYDLLRNTHFRGVSLNLTRK [DYRK1B] | 2.28 ± 0.36 | 2.15 ± 0.09
16 | TTLKGHEGSVACLWWDPIQRLLFS [WDFY1] | 2.08 ± 0.27 | 2.35 ± 0.39

Row | Sequence | protein stability index (treatment: DMSO) | protein stability index (treatment: MLN4924 1 uM, 8 h)
17 | SGEVLNGAAVVRPPGHHAEQDAAC [HDAC6] | 5.32 ± 0.31 | 5.13 ± 0.14
18 | VEEGDSRFLANEVLQENYTHLPKA [WEE1] | 4.74 ± 0.2 | 4.81 ± 0.13
19 | GEITQHNVTELLRDVAAWGRARAT [DNAAF3] | 3.11 ± 0.35 | 3.53 ± 0.5
20 | KQFHNEVLKAHNEYRQKHGVPPLK [GLIPR2] | 3.79 ± 0.19 | 3.72 ± 0.17
21 | AHSAAVTASGDCYTFGSNQHGQLG [NEK8] | 3.81 ± 0.2 | 3.94 ± 0.35
22 | QNNQAKELERLIDKAMKKDGLVGM [FIS1] | 4.18 ± 0.19 | 4.3 ± 0.12
23 | MPSSTTQKDSYQPPGNVYWPLRGK [SPAG8] | 4.21 ± 0.28 | 4.22 ± 0.28
24 | CRLGYGCGYEGCRYGCGHRGCGDG [KRTAP19-2] | 3.01 ± 0.46 | 3.11 ± 0.41
25 | YEEGMYADWWQEPDAKGDEAEAEP [P3H4] | 5.49 ± 0.17 | 5.37 ± 0.22
26 | GETYCEEHGEKIYFFCENDAEFLC [TRIM15] | 3.22 ± 0.26 | 3.33 ± 0.44
27 | EKPPRPEAKSAQPADGWKGERPRS [GCH1] | 5.2 ± 0.2 | 5.21 ± 0.11
28 | IATYRSLLEGQDAKMAGIGIREAS [KRT15] | 3.09 ± 0.23 | 3.25 ± 0.1
29 | TLYLIVALATVSLLSLVTFTFLSA [PCDHGC5] | 3.2 ± 0.13 | 3.26 ± 0.29
30 | SSITEAVPSESEPPALQNNLLSPL [NFE2L1] | 4.75 ± 0.12 | 4.75 ± 0.21
31 | DHMRKKQHRKINPKNREYDRFYVI [ZNF277] | 2.21 ± 0.29 | 2.03 ± 0.28
32 | DRLLVERIFAQYMVPHNLETTERM [PDS5B] | 2.29 ± 0.31 | 2.17 ± 0.086
